Measurements taken from patent publication US20210188994A1.
pKd: −log10 of the molar value.

Target: His-tagged FcγRIIIa recombinant protein (UniProt P08637)
Assay: SPR (BIACORE X100), His-tagged FcγRIIIa captured on anti-His CM5 chip, antibody as analyte, 1:1 Langmuir fit

Chain of UniProt P08637 (P08637 17-208 limits assumed): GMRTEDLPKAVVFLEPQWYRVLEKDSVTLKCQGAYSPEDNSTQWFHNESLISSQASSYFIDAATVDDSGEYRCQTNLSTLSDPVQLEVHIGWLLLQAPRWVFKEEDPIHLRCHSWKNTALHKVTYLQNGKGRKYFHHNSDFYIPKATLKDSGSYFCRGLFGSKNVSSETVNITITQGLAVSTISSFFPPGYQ

With “GAZYVA (obinutuzumab), commercial afucosylated anti-CD20 antibody” the pKd was 7.40, the koff was 0.0069 s⁻¹ and the kon was 173000 M⁻¹ s⁻¹.
